PMC10921949, “Multivalent coiled-coil interactions enable full-scale centrosome assembly and strength” (The Journal of Cell Biology, 2024)
Changes are numbered by the printed parent chain.

B1: SPD-5(541–677) (domain or fragment, C. elegans, UniProt P91349 541-677, looked up)
chain: SQSHIPILHDMQQILDSSAMFLEGQHDVAVNVEQMQEKMSQIREALARLFERLKSSAALFEEILERMGSSDPNADKIKKMKLAFETSINDKLNVSAILEAAEKDLHNMSLNFSILEKSIVSQAAEASRRFTIAPDAE
notes: Used alone and after incubation with kinase-dead PLK-1 (unphosphorylated); also called helical hairpin; source: Arctic Express bacteria, purified (Ni-NTA, Superdex 75 size exclusion)
B2: SPD-5(541–677) R592K (domain or fragment, C. elegans, UniProt P91349 541-677, looked up)
chain: B1 chain with R52K
notes: source: purified
B3: SPD-5(541–677) phosphorylated by PLK-1(CA) (domain or fragment, C. elegans, UniProt P91349 541-677, looked up)
chain: B1 chain
modifications: phosphorylated by PLK-1 (verified by gel migration shift and MS); sites of this sample not listed in the text
notes: also called phosphorylated hairpin; source: Arctic Express bacteria, purified (Ni-NTA, Superdex 75 size exclusion); then incubated with PLK-1(CA)

Molecular target: the molecule itself
Experiment: mass photometry; 50 nM SPD-5(541–677) in PBS on a glass coverslip (TwoMP, Refeyn), alone or after 20 min with 20 nM PLK-1(KD) or PLK-1(CA); dimers seen down to 10 nM

Protein | stoichiometry N
B1 | 2
B2 | 2
B3 | 2
